Results from patent publication US20230340159A1 (published 2023).

T1: human EpCAM (human, UniProt P16422 24-265, limits assumed)
T1 sequence (looked up): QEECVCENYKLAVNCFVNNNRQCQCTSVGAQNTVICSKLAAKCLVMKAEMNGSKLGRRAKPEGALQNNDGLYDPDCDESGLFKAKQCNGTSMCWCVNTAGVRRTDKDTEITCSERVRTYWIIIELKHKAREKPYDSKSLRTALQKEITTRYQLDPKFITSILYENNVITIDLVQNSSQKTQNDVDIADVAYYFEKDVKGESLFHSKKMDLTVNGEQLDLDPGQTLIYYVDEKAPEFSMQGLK

B1: hVIB-13 (VHH)
VHH: QVQLVESGGGLVQPGGSLTLSCAASGTGSIFSINLMGWYRQAPGKQRELVARITSGDSTVYADSVKGRFTISRDNSKNTLYLQMNSLRPEDTAVYYCNLLLRSSPGATTPYWGQGTLVTVSS
notes: Tied by label only (hVIB-13 = h13); also called EpCAM h13; sdABD-EpCAM h13
B2: hVIB-23 (VHH)
VHH: QVQLVESGGGLVQPGGSLTLSCVISGSFSALWAMRWYRQAPGQQRELVASSRGGTTSYADSVKGRFTISRDNSKNTLYLQMNSLRPEDTAVYYCNAIDGHLAYWGQGTLVTVSS
notes: Tied by label only (hVIB-23 = h23); also called EpCAM h23; sdABD-EpCAM h23

What was measured:
cyno EpCAM [1] = target: cyno EpCAM (cyno); assay: ratio of cyno to human binding affinity
human EpCAM = target: T1, human EpCAM; assay: column 'Human binding affinity (nM)'; method not stated
cyno EpCAM [2] = target: cyno EpCAM (cyno); assay: column 'Cyno binding affinity (nM)'; method not stated

Row | Binder | Cyno/Human cross reactivity (cyno EpCAM [1]) | Kd (human EpCAM) | Kd (cyno EpCAM [2])
1 | B1 | 4.5 ratio cyno/human | 2.8 nM | 12.7 nM
2 | B2 | 12.6 ratio cyno/human | 4.1 nM | 58.8 nM
